Laboratory results as given in patent US20250250357A1 (NANJING ZAIMING PHARMACEUTICAL, published 2025).

Columns and labels:
[1] = target: T1, human MSLN-hFc protein (Acro, Cat. No. MSN-H5253) (human, UniProt Q13421 296-580); assay: ELISA on coated antigen, antibody 100 nM
T1 construct: the method names the coated protein as human MSLN-hFc (Acro); also called human MSLN full-length protein

[2] = target: T1, human MSLN-hFc protein (Acro, Cat. No. …); assay: ELISA on coated antigen, antibody 0.0001 nM
[3] = target: T1, human MSLN-hFc protein (Acro, Cat. No. …); assay: ELISA on coated antigen, antibody 0.01 nM
[4] = target: T1, human MSLN-hFc protein (Acro, Cat. No. …); assay: ELISA on coated antigen, antibody 0.1 nM
[5] = target: T2, human MSLN-R3 protein (human, UniProt Q13421 487-598); assay: ELISA on coated antigen, antibody 0.0001 nM
T2 construct: also called hMSLN-R3

[6] = target: T2, human MSLN-R3 protein; assay: ELISA on coated antigen, antibody 1 nM
[7] = target: T2, human MSLN-R3 protein; assay: ELISA on coated antigen, antibody 100 nM
[8] = target: T2, human MSLN-R3 protein; assay: ELISA on coated antigen, antibody 0.1 nM
[9] = target: T1, human MSLN-hFc protein (Acro, Cat. No. …); assay: ELISA on coated antigen, antibody 10 nM
[10] = target: T1, human MSLN-hFc protein (Acro, Cat. No. …); assay: ELISA on coated antigen, antibody 0.001 nM
[11] = target: T2, human MSLN-R3 protein; assay: ELISA on coated antigen, antibody 10 nM
[12] = target: T1, human MSLN-hFc protein (Acro, Cat. No. …); assay: ELISA on coated antigen, antibody 1 nM
[13] = target: T2, human MSLN-R3 protein; assay: ELISA on coated antigen, antibody 0.001 nM
[14] = target: T2, human MSLN-R3 protein; assay: ELISA on coated antigen, antibody 0.01 nM
[15] = target: T3, human MSLN protein endogenously expressed on OVCAR3 tumor cells (human, UniProt Q13421 296-598); assay: FACS on OVCAR3 cells
T3 construct: whole, on cells; Endogenous target on OVCAR3 cells; kept apart from the recombinant full-length construct; also called mesothelin

[16] = target: T4, human MSLN full-length protein (NCBI: AAH09272.1) expressed on HEK293T-hMSLN-B8 cells (human, UniProt Q13421 296-598); assay: FACS on HEK293T-hMSLN-B8 cells
T4 construct: Whole encoded precursor

[17] = target: T5, monkey MSLN full-length protein (NCBI: XP_028696439.1) expressed on HEK293T-monkey MSLN cells (monkey); assay: FACS on HEK293T-monkey MSLN cells
T5 construct: Whole encoded precursor
T5 chain: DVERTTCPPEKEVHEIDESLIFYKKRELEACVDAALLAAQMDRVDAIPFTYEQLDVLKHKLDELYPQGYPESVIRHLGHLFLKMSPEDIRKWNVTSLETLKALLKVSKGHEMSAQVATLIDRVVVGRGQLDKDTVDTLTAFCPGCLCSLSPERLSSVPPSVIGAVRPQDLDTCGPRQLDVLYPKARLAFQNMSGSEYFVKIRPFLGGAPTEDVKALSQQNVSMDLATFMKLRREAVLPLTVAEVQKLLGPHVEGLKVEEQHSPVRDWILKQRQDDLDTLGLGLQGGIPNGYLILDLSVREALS

[18] = target: T6, human MSLN-R3 protein (Met487-Ser606 of NCBI AAH09272.1) expressed on HEK293T-hMSLN-R3 cells (human, UniProt Q13421 487-606); assay: FACS on HEK293T-hMSLN-R3 cells
T6 construct: also called Region3

[19] = target: T2, human MSLN-R3 protein; assay: ELISA on coated antigen, antibody 0.1 nM; remark: listed apart in the source
[20] = target: T2, human MSLN-R3 protein; assay: ELISA on coated antigen, antibody 0.001 nM; remark: listed apart in the source
[21] = target: T2, human MSLN-R3 protein; assay: ELISA on coated antigen, antibody 100 nM; remark: listed apart in the source
[22] = target: T2, human MSLN-R3 protein; assay: ELISA on coated antigen, antibody 0.0001 nM; remark: listed apart in the source
[23] = target: T2, human MSLN-R3 protein; assay: ELISA on coated antigen, antibody 1 nM; remark: listed apart in the source
[24] = target: T2, human MSLN-R3 protein; assay: ELISA on coated antigen, antibody 10 nM; remark: listed apart in the source
[25] = target: T2, human MSLN-R3 protein; assay: ELISA on coated antigen, antibody 0.01 nM; remark: listed apart in the source

T1 sequence (Q13421 other isoform, or with tags, fused parts or gaps limits assumed): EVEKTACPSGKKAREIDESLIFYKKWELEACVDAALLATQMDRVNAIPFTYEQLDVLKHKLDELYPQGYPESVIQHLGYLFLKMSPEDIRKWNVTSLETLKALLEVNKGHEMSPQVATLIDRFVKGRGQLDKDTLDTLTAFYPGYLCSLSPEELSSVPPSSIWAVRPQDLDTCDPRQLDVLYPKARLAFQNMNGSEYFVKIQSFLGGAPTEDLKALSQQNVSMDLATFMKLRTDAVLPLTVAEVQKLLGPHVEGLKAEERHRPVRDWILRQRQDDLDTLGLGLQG
T2 sequence (Q13421 495-606, form in doubt): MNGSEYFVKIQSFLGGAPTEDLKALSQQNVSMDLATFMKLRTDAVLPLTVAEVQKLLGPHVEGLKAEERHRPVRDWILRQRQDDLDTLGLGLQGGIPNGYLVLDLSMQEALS
T3 sequence (Q13421 other isoform, or with tags, fused parts or gaps): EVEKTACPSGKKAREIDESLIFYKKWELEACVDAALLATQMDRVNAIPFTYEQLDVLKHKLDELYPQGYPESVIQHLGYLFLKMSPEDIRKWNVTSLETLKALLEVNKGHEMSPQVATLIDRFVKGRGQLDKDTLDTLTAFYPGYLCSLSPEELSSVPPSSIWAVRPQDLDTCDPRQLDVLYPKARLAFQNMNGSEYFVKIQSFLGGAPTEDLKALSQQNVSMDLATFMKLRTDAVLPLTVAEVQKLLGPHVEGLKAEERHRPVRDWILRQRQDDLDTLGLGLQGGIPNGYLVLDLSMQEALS
T4 sequence (Q13421 other isoform, or with tags, fused parts or gaps limits assumed): as the sequence (Q13421 other isoform, or with tags, fused parts or gaps) above, with R14P counted along it
T6 sequence (Q13421 495-614): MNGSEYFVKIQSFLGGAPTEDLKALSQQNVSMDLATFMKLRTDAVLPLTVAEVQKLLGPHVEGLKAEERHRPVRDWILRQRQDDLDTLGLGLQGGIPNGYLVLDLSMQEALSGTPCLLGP

B1: F7.33.24-H1 (scFv, not shown: small tags and cut ends)
scFv: EVQLVQSGAEVKKPGASVKVSCKASGYTFTSYWMHWVRQAPGQRLEWMGNVNPSNGGSNYNEKFKNRVTITVDKSASTAYMELSSLRSEDTAVYYCAPHYIGSRPGFAYWGQGTLVTVSSGGGGSGGGGSGGGGSDIVMTQSPDSLAVSLGERATINCKASQNVGTNIAWYQQKPGQSPKALIYSASYRYSGVPDRFSGSGSGTDFTLTISSLQAEDVAVYYCQQYNSYPLTFGGGTKVEIK
notes: also called S009-F7.33.24 humanized antibody VH1 + VL1
OD450 [1]: 2.9 OD450
OD450 [2]: 0.05 OD450
OD450 [3]: 0.05 OD450
OD450 [4]: 0.1 OD450
OD450 [5]: 0.04 OD450
OD450 [6]: 0.52 OD450
OD450 [7]: 1.93 OD450
OD450 [8]: 0.08 OD450
OD450 [9]: 2.53 OD450
OD450 [10]: 0.04 OD450
OD450 [11]: 1.61 OD450
OD450 [12]: 0.59 OD450
OD450 [13]: 0.04 OD450
OD450 [14]: 0.04 OD450

B2: F7.33.24-H7 (scFv, not shown: small tags and cut ends)
scFv: EVQLVQSGAEVKKPGASVKVSCKASGYTFTSYWMHWVRQAPGQGLEWMGNVNPSNGGSNYNEKFKNRVTITVDKSASTAYMELSSLRSEDTAVYYCAPHYIGSRPGFAYWGQGTLVTVSSGGGGSGGGGSGGGGSDIVMTQSPDSLAVSLGERATINCKASQNVGTNIAWYQQKPGQSPKALIYSASYRYSGVPDRFSGSGSGTDFTLTISSLQAEDVAVYYCQQYNSYPLTFGGGTKVEIK
notes: also called S009-F7.33.24 humanized antibody VH2 + VL1
OD450 [1]: 2.79 OD450
OD450 [2]: 0.05 OD450
OD450 [3]: 0.05 OD450
OD450 [4]: 0.1 OD450
OD450 [5]: 0.04 OD450
OD450 [6]: 0.33 OD450
OD450 [7]: 1.95 OD450
OD450 [8]: 0.06 OD450
OD450 [9]: 2.32 OD450
OD450 [10]: 0.06 OD450
OD450 [11]: 1.52 OD450
OD450 [12]: 0.48 OD450
OD450 [13]: 0.04 OD450
OD450 [14]: 0.04 OD450

B3: F7.33.24-H4 (scFv, not shown: small tags and cut ends)
scFv: EVQLVQSGAEVKKPGASVKVSCKASGYTFTSYWMHWVRQAPGQRLEWMGNVNPSSGGSNYNEKFKNRVTITVDKSASTAYMELSSLRSEDTAVYYCAPHYIGSRPGFAYWGQGTLVTVSSGGGGSGGGGSGGGGSDIVMTQSPDSLAVSLGERATINCKASQNVGTNIAWYQQKPGQSPKALIYSASYRYSGVPDRFSGSGSGTDFTLTISSLQAEDVAVYYCQQYNSYPLTFGGGTKVEIK
notes: also called S009-F7.33.24 humanized antibody VH1a + VL1
OD450 [1]: 2.95 OD450
OD450 [2]: 0.05 OD450
OD450 [3]: 0.07 OD450
OD450 [4]: 0.08 OD450
OD450 [5]: 0.04 OD450
OD450 [6]: 0.45 OD450
OD450 [7]: 1.95 OD450
OD450 [8]: 0.07 OD450
OD450 [9]: 2.21 OD450
OD450 [10]: 0.05 OD450
OD450 [11]: 1.64 OD450
OD450 [12]: 0.45 OD450
OD450 [13]: 0.04 OD450
OD450 [14]: 0.04 OD450

B4: F7.33.24-H10 (scFv, not shown: small tags and cut ends)
scFv: EVQLVQSGAEVKKPGASVKVSCKASGYTFTSYWMHWVRQAPGQGLEWMGNVNPSNAGSNYNEKFKNRVTITVDKSASTAYMELSSLRSEDTAVYYCAPHYIGSRPGFAYWGQGTLVTVSSGGGGSGGGGSGGGGSDIVMTQSPDSLAVSLGERATINCKASQNVGTNIAWYQQKPGQSPKALIYSASYRYSGVPDRFSGSGSGTDFTLTISSLQAEDVAVYYCQQYNSYPLTFGGGTKVEIK
notes: also called S009-F7.33.24 humanized antibody VH2a + VL1
OD450 [1]: 3.03 OD450
OD450 [2]: 0.04 OD450
OD450 [3]: 0.05 OD450
OD450 [4]: 0.09 OD450
OD450 [5]: 0.05 OD450
OD450 [6]: 0.55 OD450
OD450 [7]: 2.26 OD450
OD450 [8]: 0.08 OD450
OD450 [9]: 2.28 OD450
OD450 [10]: 0.04 OD450
OD450 [11]: 1.85 OD450
OD450 [12]: 0.51 OD450
OD450 [13]: 0.05 OD450
OD450 [14]: 0.04 OD450

B5: S009-F2-56.12 (antibody, human IgG1, kappa, V domains shown)
VH: DVQLQESGPGMVKPSQSLSLTCTVTGYSITSGYDWHWIRHFPGNKLEWMGYISYSGSTNYNPSLKSRISITHDTSKNHFFLKLKSVTTEDTATYYCARGTGPDYWGQGTTLTVSS
VL: DIVMTQSQKFMSTSVGDRVSITCKASQNVRTAVAWYQQKPGQSPKALIHLPSNRHTGVPDRFTGSGSGTDFTLTISNVQSEDLADYFCLQHWNYPLTFGGGTKLEIKR
notes: human-murine chimeric antibody, human IgG1/kappa constant regions
EC50 [15]: 0.54 nM
Maximum mean fluorescence intensity [15]: 6140
EC50 [16]: ~0.79 nM
Maximum mean fluorescence intensity [16]: 67000
Maximum mean fluorescence intensity [17]: 95
binding result [17]: no binding
Maximum mean fluorescence intensity [18]: 94
binding result [18]: no binding

B6: Tab110 (scFv, not shown: small tags and cut ends)
scFv: QQQLEESGGGLVKPEGSLTLTCKASGFDLGFYFYACWVRQAPGKGLEWIACIYTAGSGSTYYASWAKGRFTISKASSTTVTLQMTSLAAADTATYFCARSTANTRSTYYLNLWGPGTLVTVSSGGGGSGGGGSGGGGSDVVMTQTPASVSEPVGGTVTIKCQASQRISSYLSWYQQKPGQRPKLLIFGASTLASGVPSRFKGSGSGTEYTLTISDLECADAATYYCQSYAYFDSNNWHAFGGGTEVVV
notes: also called YP218 VH-(G4S)3-VL-his antibody; positive control
OD450 [5]: 0.05 OD450
OD450 [6]: 0.06 OD450
OD450 [7]: 0.98 OD450
OD450 [8]: 0.04 OD450
OD450 [19]: 0.04 OD450
OD450 [20]: 0.04 OD450
OD450 [11]: 0.78 OD450
OD450 [13]: 0.04 OD450
OD450 [21]: 0.98 OD450
OD450 [14]: 0.04 OD450
OD450 [22]: 0.05 OD450
OD450 [23]: 0.06 OD450
OD450 [24]: 0.78 OD450
OD450 [25]: 0.04 OD450

B7: Tab111 (scFv, not shown: small tags and cut ends)
scFv: DVVMTQTPASVSEPVGGTVTIKCQASQRISSYLSWYQQKPGQRPKLLIFGASTLASGVPSRFKGSGSGTEYTLTISDLECADAATYYCQSYAYFDSNNWHAFGGGTEVVVGGGGSGGGGSGGGGSQQQLEESGGGLVKPEGSLTLTCKASGFDLGFYFYACWVRQAPGKGLEWIACIYTAGSGSTYYASWAKGRFTISKASSTTVTLQMTSLAAADTATYFCARSTANTRSTYYLNLWGPGTLVTVSS
notes: also called YP218 VL-(G4S)3-VH-his antibody; positive control
OD450 [5]: 0.05 OD450
OD450 [6]: 0.51 OD450
OD450 [7]: 2.1 OD450
OD450 [8]: 0.09 OD450
OD450 [19]: 0.09 OD450
OD450 [20]: 0.05 OD450
OD450 [11]: 1.88 OD450
OD450 [13]: 0.05 OD450
OD450 [21]: 2.1 OD450
OD450 [14]: 0.05 OD450
OD450 [22]: 0.05 OD450
OD450 [23]: 0.51 OD450
OD450 [24]: 1.88 OD450
OD450 [25]: 0.05 OD450
